Measurements: patent US20180273623A1

Target: EGFR (human) (UniProt P00533)
Experiment: flow cytometry on HCC-1954 cells, upper panel; staining antibody not named on the sheet or in the legend, assigned by analogy with FIG. 28A and 28C; open histogram shifted from the hatched control

MFI: 262
Substance: EGFR 528 (phb 704) (antibody)
